In US20250276018A1 (AFFYIMMUNE THERAPEUTICS, published 2025):
Where a chain is given by its changes, count along the chain named. Names and notes keep the numbering of the source.

B1: Affy6-I3F CAR (other)
chain: GSEQKLISEEDLGSQVQLVQSGAEVKKPGASVKVSCKASGYIFTAYTMHWVRQAPGQGLEWMGWIKPNNGLANYAQKFQGRVTMTRDTSISTAYMELSRLRSDDTAVYYCARSEFTTEFDYWGQGTLVTVSSGGGGSGGGGSGGGGSDIVLTQSPDSLAVSLGERATINCKSSESVDSYANSFMHWYQQKPGQPPKLLIYRASTRESGVPDRFSGSGSRTDFTLTISSLQAEDVAVYYCQQSKEDPLTFGGGTKVEIKASTTTPAPRPPTPAPTIASQPLSLRPEACRPAAGGAVHTRGLDFACDFWVLVVVGGVLACYSLLVTVAFIIFWVRSKRSRLLHSDYMNMTPRRPGPTRKHYQPYAPPRDFAAYRSLRVKFSRSADAPAYQQGQNQLYNELNLGRREEYDVLDKRRGRDPEMGGKPRRKNPQEGLYNELQKDKMAEAYSEIGMKGERRRGKGHDGLYQGLSTATKDTYDALHMQALPPR
notes: CAR on transduced human T cells; I to F in HC CDR3; P2A remnant not included; also called MycT-Affy6-I3F CAR-SSTR2
B2: Affy6-I3W CAR (other)
chain: B1 chain with F115W
notes: CAR on transduced human T cells; I to W in HC CDR3; P2A remnant not included; also called MycT-Affy6-I3W CAR-SSTR2
B3: Affy6-I3G CAR (other)
chain: B1 chain with F115G
notes: CAR on transduced human T cells; I to G in HC CDR3; P2A remnant not included; also called MycT-Affy6-I3G CAR-SSTR2

Legend:
[1] = target: T1, c-MET on human target cells (human, UniProt P08581 25-1390); experiment: cell-based or functional assay
[2] = target: T1, c-MET on human target cells; experiment: cell-based or functional assay; remark: listed apart in the source
[3] = target: T1, c-MET on human target cells; experiment: cell-based or functional assay; remark: listed apart in the source
[4] = target: T1, c-MET on human target cells; experiment: cell-based or functional assay; remark: listed apart in the source
[5] = target: T1, c-MET on human target cells; experiment: cell-based or functional assay; remark: listed apart in the source
[6] = target: T2, AF647 labeled c-met protein (UniProt P08581 25-932, limits assumed, labeled with AlexaFluor 647 (AF647)); experiment: flow cytometry, EC50 relative to parental Affy6 CAR-T cells (Round 2)
T2 construct: Soluble labeled c-met protein titrated on CAR-T cells
Experimental: (§1) Binding of labeled c-MET to CAR-T cells expressing the affinity tuned c-MET scFvs was evaluated by transducing lentivirus anti-c-MET CAR particles into human T cells to form c-MET CAR-T cells incubated with AF647-labeled c-MET. […] Following a 48 hr. incubation at 37° C., the culture media was brought up to […] per well and incubated at 37° C. for 10 days.
(§2) Cells were stained on ice for 30 mins and then washed with PBS. After washing, residually bound protein on CAR T cells were measured on a flow cytometer (Beckman, CytoFLEX®). The resulting binding data was fit using a non-linear regression analysis on GraphPad Prism to calculate half effective dose concentration (EC₅₀) values. The results of this analysis are shown in FIGS. 2-5 and Tables 2-5 below.

[7] = target: T2, AF647 labeled c-met protein; experiment: flow cytometry, AF647-labeled c-met protein titrated on CAR-T cells (Round 2)
Experimental: as §1, §2

T1 sequence (P08581 25-1390): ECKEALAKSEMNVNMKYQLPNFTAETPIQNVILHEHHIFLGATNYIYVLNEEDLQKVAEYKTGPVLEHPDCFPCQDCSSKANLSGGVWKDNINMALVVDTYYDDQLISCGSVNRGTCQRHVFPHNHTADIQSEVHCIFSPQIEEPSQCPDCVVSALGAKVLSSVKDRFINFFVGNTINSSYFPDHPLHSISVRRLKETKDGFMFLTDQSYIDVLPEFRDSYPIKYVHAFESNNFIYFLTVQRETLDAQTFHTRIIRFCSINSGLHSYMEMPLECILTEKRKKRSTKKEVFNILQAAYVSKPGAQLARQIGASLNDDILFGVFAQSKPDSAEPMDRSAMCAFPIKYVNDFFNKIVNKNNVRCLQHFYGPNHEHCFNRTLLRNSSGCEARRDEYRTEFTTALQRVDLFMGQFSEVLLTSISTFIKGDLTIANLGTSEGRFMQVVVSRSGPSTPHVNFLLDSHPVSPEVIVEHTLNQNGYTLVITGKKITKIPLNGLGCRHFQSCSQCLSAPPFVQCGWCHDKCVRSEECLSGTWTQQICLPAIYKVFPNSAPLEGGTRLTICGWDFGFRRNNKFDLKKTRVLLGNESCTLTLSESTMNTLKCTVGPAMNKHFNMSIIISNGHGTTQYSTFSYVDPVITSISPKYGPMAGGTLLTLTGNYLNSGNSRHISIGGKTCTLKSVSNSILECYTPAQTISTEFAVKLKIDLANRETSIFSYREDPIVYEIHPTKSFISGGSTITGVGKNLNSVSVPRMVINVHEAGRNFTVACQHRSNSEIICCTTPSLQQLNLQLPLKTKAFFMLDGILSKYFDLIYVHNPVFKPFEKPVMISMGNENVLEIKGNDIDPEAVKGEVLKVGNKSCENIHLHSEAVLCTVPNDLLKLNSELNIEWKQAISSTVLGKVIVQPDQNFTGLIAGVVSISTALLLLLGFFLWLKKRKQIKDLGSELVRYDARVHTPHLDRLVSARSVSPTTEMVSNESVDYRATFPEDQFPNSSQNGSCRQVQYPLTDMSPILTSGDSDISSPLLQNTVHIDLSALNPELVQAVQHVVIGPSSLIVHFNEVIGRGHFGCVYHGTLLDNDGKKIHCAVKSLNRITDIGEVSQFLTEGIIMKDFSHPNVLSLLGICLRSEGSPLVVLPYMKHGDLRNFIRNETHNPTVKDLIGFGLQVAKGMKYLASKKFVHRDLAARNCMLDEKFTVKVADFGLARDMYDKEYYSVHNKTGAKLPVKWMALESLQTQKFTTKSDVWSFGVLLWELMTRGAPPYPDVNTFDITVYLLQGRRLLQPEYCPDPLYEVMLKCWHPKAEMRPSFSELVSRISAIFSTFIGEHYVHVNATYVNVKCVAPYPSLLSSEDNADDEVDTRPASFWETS
T2 sequence (P08581 25-932 limits assumed): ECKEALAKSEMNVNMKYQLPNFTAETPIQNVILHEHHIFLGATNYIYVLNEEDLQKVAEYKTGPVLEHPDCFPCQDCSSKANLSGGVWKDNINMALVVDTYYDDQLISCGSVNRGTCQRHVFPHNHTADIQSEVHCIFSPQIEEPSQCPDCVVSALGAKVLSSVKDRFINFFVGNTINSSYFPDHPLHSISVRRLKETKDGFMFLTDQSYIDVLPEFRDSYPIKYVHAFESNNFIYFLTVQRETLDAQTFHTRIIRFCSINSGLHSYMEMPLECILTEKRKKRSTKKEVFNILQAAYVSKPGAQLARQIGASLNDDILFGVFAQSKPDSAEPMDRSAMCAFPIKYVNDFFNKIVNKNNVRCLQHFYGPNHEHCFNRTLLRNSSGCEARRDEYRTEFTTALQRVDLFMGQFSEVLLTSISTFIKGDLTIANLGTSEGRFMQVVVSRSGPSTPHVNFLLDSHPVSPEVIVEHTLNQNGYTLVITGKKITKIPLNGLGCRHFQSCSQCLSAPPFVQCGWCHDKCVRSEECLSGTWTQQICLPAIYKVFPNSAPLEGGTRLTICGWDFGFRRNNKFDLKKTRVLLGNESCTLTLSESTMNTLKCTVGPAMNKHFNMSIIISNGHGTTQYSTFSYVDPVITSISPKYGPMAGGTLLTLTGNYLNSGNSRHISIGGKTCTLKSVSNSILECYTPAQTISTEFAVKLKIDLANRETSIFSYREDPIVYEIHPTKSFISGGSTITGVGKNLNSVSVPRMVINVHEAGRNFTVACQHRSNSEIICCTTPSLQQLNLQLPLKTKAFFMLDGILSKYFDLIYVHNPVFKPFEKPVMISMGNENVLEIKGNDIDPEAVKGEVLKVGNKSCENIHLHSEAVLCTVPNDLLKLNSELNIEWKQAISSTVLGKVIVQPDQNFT

Row | Binder | percent cytotoxicity, H1993, 24 hrs [1] [%] | percent cytotoxicity, H1993, 48 hrs [1] [%] | percent cytotoxicity, H1993, 72 hrs [1] [%] | cytotoxicity, Normal Human Lung Cells, 8 hrs [2] | cytotoxicity, Normal Human Lung Cells, 16 hrs [2] | cytotoxicity, Normal Human Lung Cells, 24 hrs [2] | cytotoxicity, Normal Human Lung Cells, 32 hrs [2] | cytotoxicity, Normal Human Lung Cells, 40 hrs [2] | cytotoxicity, Normal Human Lung Cells, 48 hrs [2] | cytotoxicity, Normal Human Liver Cells, 8 hrs [3] | cytotoxicity, Normal Human Liver Cells, 16 hrs [3] | cytotoxicity, Normal Human Liver Cells, 24 hrs [3] | cytotoxicity, Normal Human Liver Cells, 32 hrs [3] | cytotoxicity, Normal Human Liver Cells, 40 hrs [3] | cytotoxicity, Normal Human Liver Cells, 48 hrs [3] | cytotoxicity, Normal Human Kidney Cells, 8 hrs [4] | cytotoxicity, Normal Human Kidney Cells, 16 hrs [4] | cytotoxicity, Normal Human Kidney Cells, 24 hrs [4] | cytotoxicity, Normal Human Kidney Cells, 32 hrs [4] | cytotoxicity, Normal Human Kidney Cells, 40 hrs [4] | also measured
1 | B1 | 64.7 | 91.3 | 97 | 17.1 | 16.4 | 19.1 | 18 | 29.4 | 34.8 | 15.3 | 24.7 | 31.8 | 34.8 | 34.8 | 31.8 | 19.2 | 28 | 30.4 | 27.8 | 18.8 | cytotoxicity, Normal Human Kidney Cells, 48 hrs [4]: 16.5; cytotoxicity, Normal Human Colon Cells, 8 hrs [5]: 13.2; cytotoxicity, Normal Human Colon Cells, 16 hrs [5]: 19.2; cytotoxicity, Normal Human Colon Cells, 24 hrs [5]: 22.4; cytotoxicity, Normal Human Colon Cells, 32 hrs [5]: 13.3; cytotoxicity, Normal Human Colon Cells, 40 hrs [5]: 1.6; cytotoxicity, Normal Human Colon Cells, 48 hrs [5]: 8.3; Fold Change [6]: 937 fold; EC50 [7]: 20.5 µM
2 | B2 | 74.9 | 93.5 | 98.2 | 14.3 | 20.9 | 30.6 | 34 | 41.2 | 42.7 | 15.1 | 32.4 | 44 | 52.5 | 52.4 | 53.6 | 23.6 | 39.4 | 46 | 48.6 | 43.6 | cytotoxicity, Normal Human Kidney Cells, 48 hrs [4]: 39.5; cytotoxicity, Normal Human Colon Cells, 8 hrs [5]: 18.8; cytotoxicity, Normal Human Colon Cells, 16 hrs [5]: 22.7; cytotoxicity, Normal Human Colon Cells, 24 hrs [5]: 27; cytotoxicity, Normal Human Colon Cells, 32 hrs [5]: 29.9; cytotoxicity, Normal Human Colon Cells, 40 hrs [5]: 30.9; cytotoxicity, Normal Human Colon Cells, 48 hrs [5]: 38.6; Fold Change [6]: 167 fold; EC50 [7]: 3.6 µM
3 | B3 | 32.5 | 68.1 | 81.6 | 14.8 | 17.3 | 19.5 | 18.4 | 28 | 33.1 | 9.6 | 13.7 | 18.1 | 22.3 | 22.5 | 20.5 | 10.1 | 17.9 | 17.2 | 15.8 | 10.2 | cytotoxicity, Normal Human Kidney Cells, 48 hrs [4]: 14; cytotoxicity, Normal Human Colon Cells, 8 hrs [5]: 8.2; cytotoxicity, Normal Human Colon Cells, 16 hrs [5]: 14.4; cytotoxicity, Normal Human Colon Cells, 24 hrs [5]: 16.4; cytotoxicity, Normal Human Colon Cells, 32 hrs [5]: 11.4; cytotoxicity, Normal Human Colon Cells, 40 hrs [5]: 2; cytotoxicity, Normal Human Colon Cells, 48 hrs [5]: 10.7; Fold Change [6]: 6900 fold; EC50 [7]: 151 µM
